In US20240034783A1 one finds % of positive healthy stomach cells (Average), % of positive healthy stomach cells (Mouse 1) and % of positive healthy stomach cells (Mouse 2) data, which are given here for five molecules.

Sequences and labels used below:
B1: cCl1-1 (antibody, V domains shown)
VH: QIQLVQSGPELKKPGESVKISCKASGYTFTDYAMHWVKQAPGKGLKWMGWINTYTGKPTYADDFKGRFVFSLEASASTANLQISNLKNEDTATYFCARAVFYGYTMDAWGQGTSVTVSS
VL: DIQMTQSPASLSASLGETISIACRASEDIYSNLAWYQQKSGKSPQLLIFSVKRLQDGVPSRFSGSGSGTQYSLKISGMQPEDEGDYFCLQGSNFPLTFGSGTKLEIK
B2: hCl1a (antibody, human IgG1, kappa, V domains shown)
VH: QVQLVQSGAEVKKPGASVKVSCKASGYTFTDYAMHWVRQAPGQRLEWMGWINTYTGKPTYAQKFQGRVTITRDTSASTAYMELSSLRSEDTAVYYCARAVFYGYTMDAWGQGTLVTVSS
VL: DIQMTQSPSSLSASVGDRVTITCRASEDIYSNLAWYQQKPGKAPKLLIFSVKRLQDGVPSRFSGSGSGTDFTLTISSLQPEDFATYYCLQGSNFPLTFGQGTKVEIKR
B3: hCl1f (antibody, human IgG1, kappa, V domains shown)
VH: QVQLVQSGAEVKKPGASVKVSCKASGYTFTDYAMHWVRQAPGQRLEWMGWINAYTGKPTYAQKFQGRVTITRDTSASTAYMELSSLRSEDTAVYYCARAVFYGYTMDAWGQGTLVTVSS
VL: DIQMTQSPSSLSASVGDRVTITCRASEDIYSNLAWYQQKPGKAPKLLIYSVKRLQDGVPSRFSGSGSGTDFTLTISSLQPEDFATYYCLQGSNFPLTFGQGTKVEIKR
B4: hCl1b (antibody, human IgG1, kappa, V domains shown)
VH: QVQLVQSGAEVKKPGASVKVSCKASGYTFTDYAMHWVRQAPGQRLEWMGWINTYTGKPTYSQKFQGRVTITRDTSASTAYMELSSLRSEDTAVYYCARAVFYGYTMDAWGQGTLVTVSS
VL: DIQMTQSPSSLSASVGDRVTITCRASEDIYSNLAWYQQKPGKAPKLLIFSVKRLQDGVPSRFSGSGSGTDFTLTISSLQPEDFATYYCLQGSNFPLTFGQGTKVEIKR
B5: hCl1c (antibody, human IgG1, kappa, V domains shown)
VH: QVQLVQSGAEVKKPGASVKVSCKASGYTFTDYAMHWVRQAPGQRLEWMGWINTYTGKPTYSQKFQGRVTITRDTSASTAYMELSSLRSEDTAVYYCARAVFYGYTMDAWGQGTLVTVSS
VL: DIQMTQSPSSLSASVGDRVTITCRTSEDIYSNLAWYQQKPGKAPKLLIFAIKRLQDGVPSRFSGSGSGTDFTLTISSLQPEDFATYYCLQGSKFPLTFGQGTKVEIKR

This assay deals with CLDN18.2 expressed in mouse healthy stomach tissue (mouse) (UniProt P56857). In words: flow cytometry, live cells from healthy mouse stomach, antibody 4 µg/ml.
B1 gave a % of positive healthy stomach cells (Average) of 0.35%, a % of positive healthy stomach cells (Mouse 1) of 0.4% and a % of positive healthy stomach cells (Mouse 2) of 0.3%.
B2 returned a % of positive healthy stomach cells (Average) of 0.75%, a % of positive healthy stomach cells (Mouse 1) of 1.2% and a % of positive healthy stomach cells (Mouse 2) of 0.3%.
For B3 the same measures were 0.07%, 0.04% and 0.1%.
In turn, B4 displayed a % of positive healthy stomach cells (Average) of 0.565%, a % of positive healthy stomach cells (Mouse 1) of 1% and a % of positive healthy stomach cells (Mouse 2) of 0.13%.
B5 registered a % of positive healthy stomach cells (Average) of 0.25%, a % of positive healthy stomach cells (Mouse 1) of 0.1% and a % of positive healthy stomach cells (Mouse 2) of 0.4%.
